According to PMC11681868 (2024):
Where no end group is shown, it is not given here. [ ]: non-standard residue; d: D form. pS = N[C@@H](COP(=O)(O)O)C(=O)O

Key:
G11 = experiment: ITC
A3 = experiment: ITC

Kd (G11): 18.1 nM
Kd (A3): 31.8 nM
Binder: RPHFPQF[pS]YSAS [phosphorylated Akt peptide]
